Test results as given in patent publication US20060177432.

Test system: T1, 6xHis-PEBP (recombinant mouse PEBP with a 6xHis-tag at the N-terminus)
T1 sequence: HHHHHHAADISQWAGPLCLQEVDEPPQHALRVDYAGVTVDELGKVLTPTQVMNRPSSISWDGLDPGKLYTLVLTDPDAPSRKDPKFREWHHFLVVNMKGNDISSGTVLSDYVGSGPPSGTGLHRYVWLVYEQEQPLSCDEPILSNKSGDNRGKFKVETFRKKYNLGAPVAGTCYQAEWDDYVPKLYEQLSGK

Sequence of tissue plasminogen activator (P00750 36-562): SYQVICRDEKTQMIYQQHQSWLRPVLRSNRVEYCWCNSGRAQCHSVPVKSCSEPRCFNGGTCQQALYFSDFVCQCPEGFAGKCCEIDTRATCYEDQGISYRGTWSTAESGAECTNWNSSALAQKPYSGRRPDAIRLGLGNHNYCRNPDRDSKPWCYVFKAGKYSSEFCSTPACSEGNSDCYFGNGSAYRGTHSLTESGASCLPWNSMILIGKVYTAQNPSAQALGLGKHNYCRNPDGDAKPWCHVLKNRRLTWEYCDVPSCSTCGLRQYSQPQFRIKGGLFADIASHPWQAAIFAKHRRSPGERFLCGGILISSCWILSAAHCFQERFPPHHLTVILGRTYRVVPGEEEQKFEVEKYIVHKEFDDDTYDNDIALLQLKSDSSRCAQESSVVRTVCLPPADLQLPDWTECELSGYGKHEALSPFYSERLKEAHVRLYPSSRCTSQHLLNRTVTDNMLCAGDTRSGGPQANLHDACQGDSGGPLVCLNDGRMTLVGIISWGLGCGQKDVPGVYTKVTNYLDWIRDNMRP
Sequence of pancreatic elastase (P00772 27-266): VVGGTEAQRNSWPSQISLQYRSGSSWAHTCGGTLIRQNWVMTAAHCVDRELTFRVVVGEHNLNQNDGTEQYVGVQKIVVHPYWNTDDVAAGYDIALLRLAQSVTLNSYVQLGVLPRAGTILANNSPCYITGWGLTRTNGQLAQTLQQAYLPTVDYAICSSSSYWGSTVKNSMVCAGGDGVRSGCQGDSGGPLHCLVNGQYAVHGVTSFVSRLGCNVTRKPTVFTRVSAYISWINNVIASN
Sequence of trypsin (P00760 24-246): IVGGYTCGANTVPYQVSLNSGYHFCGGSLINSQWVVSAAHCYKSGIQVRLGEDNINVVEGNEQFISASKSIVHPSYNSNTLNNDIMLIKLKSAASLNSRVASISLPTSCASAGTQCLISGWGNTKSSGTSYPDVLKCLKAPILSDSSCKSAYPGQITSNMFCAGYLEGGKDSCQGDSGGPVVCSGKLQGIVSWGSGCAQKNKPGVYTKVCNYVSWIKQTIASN

## pancreatic elastase
  amidolytic activity (chromogenic substrate, 405 nm): The amidolytic activities of ... pancreatic elastase (4 pmol) were not affected

## tissue plasminogen activator
  amidolytic activity (chromogenic substrate, 405 nm): The amidolytic activities of ... tissue plasminogen activator (0.5 pmol) ... were not affected

## trypsin
  amidolytic activity (chromogenic substrate, 405 nm): The amidolytic activities of trypsin (0.005 pmol) ... were not affected
